Test results as given in the supplement of paper PMC7125110.
± gives the standard error. Variants at the floor of the assay were thinned out.

B1: glmS ribozyme (parent)
chain: AUAAAAGCGCCAGAACUACAGAAAUGUAGUUGACGAGGAGGAGGUUUAUCGAAUUUUCGGCGGAUGCCUCCAAA

Legend:
Details in all cases: with glucosamine-6-phosphate
glucosamine-6-phosphate [1] = variants of: B1; experiment: self-cleavage kobs at 160 uM GlcN6P; higher = faster cleavage; RNA array
How it was run: (§1)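 Glucosamine-6-phosphate (40 μM to 10 mM) in HEPES/KCl/Mg(OAc)2 buffer was flowed over sequenced MiSeq chips, and tiles were imaged over ~14 h. Barcoded ribozyme variants there had been transcribed in situ by E. coli RNA polymerase and were tracked through a hybridised Cy3 probe at 37 °C. One- or two-exponential decay fits to per-tile medians, normalised to baseline and to non-cleaving reference variants, gave kobs. kcat and KM came from weighted Michaelis–Menten fits across concentrations.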

glucosamine-6-phosphate [2] = variants of: B1; experiment: self-cleavage kobs at 640 uM GlcN6P; higher = faster cleavage; RNA array
How it was run: as §1

glucosamine-6-phosphate [3] = variants of: B1; experiment: self-cleavage kobs at 2500 uM GlcN6P; higher = faster cleavage; RNA array
How it was run: as §1

glucosamine-6-phosphate [4] = variants of: B1; experiment: self-cleavage kobs at 10000 uM GlcN6P; higher = faster cleavage; RNA array
How it was run: as §1

Variant	self-cleavage kobs at 160 uM GlcN6P (glucosamine-6-phosphate [1]) [s⁻¹]	self-cleavage kobs at 640 uM GlcN6P (glucosamine-6-phosphate [2]) [s⁻¹]	self-cleavage kobs at 2500 uM GlcN6P (glucosamine-6-phosphate [3]) [s⁻¹]	self-cleavage kobs at 10000 uM GlcN6P (glucosamine-6-phosphate [4]) [s⁻¹]
AUAAAAGCUCCAGAACUACAGAAAUGUAGUUGACGAGGAGGAGGUUUAUCGAAUUUUCGGCGGAUGACUCCAAA [G9U C67A]	< 1e-05	< 1e-05	< 1e-05	< 1e-05
AUAAAAGCUCCAGAACUACAGAAAUGUAGUUGACGAGGAGGAAGUUUAUCGAAUUUUCGGCGGAUUCCUCCAAA [G9U G43A G66U]	< 1e-05	–	< 1e-05	–
AUAAAAGCGACAGAAUUACAGAAAUGUAGUUGACGAGGAGACGGUUUAUCGAAUUUUCGGCGGAUGCCUCCAAA [C10A C16U G41A A42C]	< 1e-05	< 1e-05	< 1e-05	< 1e-05
AUAAAAGCGACAGAACUACAGAAAUGUAGUUCACGAGGAGGAGGUUUAUCUAAUUUUCGGCGGAUGCCUCCAAA [C10A G32C G51U]	< 1e-05	–	–	–
AUAAAAGCGACAGAACUACAGAAAUGUAGUCGACGAGGAGGAGGUUUAUCGAAUUUACGGCGGUUGCCUCCAAA [C10A U31C U57A A64U]	< 1e-05	–	–	–
AUAAAAGCUCCAGGACUACAGAAAUGUAGUUGACGAGGAGGAGGUUUAUCGAAAUCUCAGCGAAGGCCUCCAAA [G9U A14G U54A U56C G59A G63A U65G]	< 1e-05	< 1e-05	–	–
AUAAAAGCUCCAGAACUACAGAAAUGUAGUUCACGAGGAGGAGGUUUAUCGAAUUUUCGGCGGAUGCCUCCAAA [G9U G32C]	< 1e-05	< 1e-05	–	< 1e-05
AUAAAAGCUCCAGAACUACAGAAAUGUAGUUGACGAGGAAGAGGUUUAUCGAAUUUUCGGCGGAUGCCUCCAAA [G9U G40A]	< 1e-05	< 1e-05	< 1e-05	< 1e-05
AUAAAAGCGACAGAACUACAGAAAUGUAGUUGACGAGGAGGAGGUUUAUCGAAUUUUCGGCGGAUGCCGCCAAA [C10A U69G]	3.29e-05 ± 1.6e-05	–	0.000329 ± 8.6e-05	3.29e-05 ± 1.6e-05
AUAAAAGCGACAGAACUACAGAAAUGUAGUUGACAAGGGGGAGGUUUAUCGAAUUUUCGGCGGAUGCCUCCAAA [C10A G35A A39G]	< 1e-05	–	< 1e-05	–
AUAAAAGCCCCAGAACUACAGAAAUGUAGUUGACGAGGAGGAGGUUUAUCGAAUUGUCGGCGGCUGCCUCCAAA [G9C U56G A64C]	< 1e-05	< 1e-05	< 1e-05	–
AUAAAAGCCCCAGAACUACAGAAAUGUAGUUGACGAGGAGGAGGUGUAUCGAAUUUUCGGCGGAUGGCUCCAAA [G9C U46G C67G]	< 1e-05	–	–	–
AUAAAAGCUCCAGAACUACAGAAAUGUAGUUGUCGAGGAGGAGGUUUAUCGAGUUUUCGGCGGAUUCCUCCAAA [G9U A33U A53G G66U]	< 1e-05	–	–	–
AUAAAAGCUCCAGAACUACAGAAAUGUAGUGGACGAGGAGGAGGUUUGUCGAAUUUUCGGCGGAUGCCUCCAAA [G9U U31G A48G]	< 1e-05	–	–	–
AUAAAAGCGGAAGAAUUACAGAAAUGUAGUUGACGAGUAGGAGGUUUAUCGAAUUUUCGGCGGAUGCCUCCAAA [C10G C11A C16U G38U]	< 1e-05	< 1e-05	–	< 1e-05
AUAAAAGCGACAGAACUACAGAAAUGUAGUUGACGAGGAGGAGGUUUAUCGAAUUUUCGGCGGAUGCGUCCAAA [C10A C68G]	0.000416 ± 0.00019	6.2e-05 ± 2.8e-05	6.4e-05 ± 1.8e-05	–

Variant	self-cleavage kobs at 160 uM GlcN6P (glucosamine-6-phosphate [1]) [s⁻¹]	self-cleavage kobs at 640 uM GlcN6P (glucosamine-6-phosphate [2]) [s⁻¹]	self-cleavage kobs at 2500 uM GlcN6P (glucosamine-6-phosphate [3]) [s⁻¹]	self-cleavage kobs at 10000 uM GlcN6P (glucosamine-6-phosphate [4]) [s⁻¹]
AUAAAAGCGACAGAACUACAGAAAUGUAGUUGACGAGGAGGAGGUUUCUCGAAUUCUCGGCGGAUGCCUCCAAA [C10A A48C U56C]	< 1e-05	< 1e-05	–	–
AUAAAAGCGACAGAACUACAGAAAUGUAGUUGACGAGAAGUAGAUUUAUCGAAUUUUCUGCGGAUGCCUCCAAA [C10A G38A G41U G44A G59U]	< 1e-05	< 1e-05	< 1e-05	–
AUAAAAGCUCCAGAACUACAGAAAUGUAGUUGACGAGGAGGAGGUUUAUCGCAUUUUCGGCGGAUGCCUCCAAA [G9U A52C]	< 1e-05	–	< 1e-05	–
AUAAAAGCCCCAGAACUACAGAAAUGUAGUUGACGAGGAGGAGGUGUAUCGAAUUUUCGGCGGAUGCCUCCAAA [G9C U46G]	< 1e-05	< 1e-05	–	< 1e-05
AUAAAAGCGACAGAACUACAGAAAUGUAGUUGACGAGGAGGUGGUUUAUCGAAUUUUCGGCGGAUGCCUCCAAA [C10A A42U]	< 1e-05	< 1e-05	< 1e-05	–
AUAAAAGCGGUAGAAAUACAGAAAUGUAGUUGUUGAGGAGGAGGUUUAUGGAAUUUUCGGCGGAUGCCUUCAAA [C10G C11U C16A A33U C34U C50G C70U]	4.84e-05 ± 2.3e-05	4.89e-05 ± 1.6e-05	6.14e-05 ± 2.5e-05	–
AUAAAAGCUGUAGAACUACAGAAAUGUAGUUGACGAGGAGGAGGUUUAUCGAAUUUUCGGCGGAUGCCUUCAAA [G9U C10G C11U C70U]	< 1e-05	–	< 1e-05	–
AUAAAAGCGACAGAACUACAGAAAUGUAGUGGACGAGGAGGUGGUUUAUCGAAUUUUCGGCGGAUGCCUCCAAA [C10A U31G A42U]	< 1e-05	< 1e-05	< 1e-05	–
AUAAAAGCGACAGGACUACAGAAAUGUAGUUGACGAGGAGGAGGUUUAUCGAAUUUUCGGCGGAUGCCUCCAAA [C10A A14G]	< 1e-05	–	–	3.58e-05 ± 1.1e-05
AUAAAAGCGACAGAACUACAGAAAUGUAGUUGACGAGGAGGAGGUUUAUCGAAUAUUCGGCGGAUGGCUCCAAA [C10A U55A C67G]	6.55e-05 ± 3e-05	0.000418 ± 0.00019	–	–
AUAAAAGCGACAGAACUACAGAAAUGUAGUUGACGAGGAGGAGGUUUAUCGAAUUUACGGCGGGUGGCUCAAAA [C10A U57A A64G C67G C71A]	0.000245 ± 7.6e-05	–	8.51e-05 ± 3.3e-05	–
AUAAAAGCUCCAGAACUACAGAAAUGUAGUUCACCAGGAGGAGGUUUAUCGAAUUUUCGGCGGGUGCCUCCAAA [G9U G32C G35C A64G]	< 1e-05	< 1e-05	< 1e-05	–
AUAAAAGCUUCAGAACUACAGAAAUGUAGUUGACGAGGAGGAGGUUUAUCGAAGUUUCGGCGGAUGCCUCCAAA [G9U C10U U54G]	< 1e-05	–	–	–
AUAAAAGCGGCAGAACUAAAGAAAUGUAGUUGACGAGGAGGAGGUUUCUCGAAUUUUCGGCGGAUGCCUCCAAA [C10G C19A A48C]	< 1e-05	< 1e-05	–	–
AUAAAAGCUCCAGAACUACAGAAAUGUAGUUGACGAGGAGCAGGUUGAUCGAAUUUUCGGCGGAUGCCUCCAAA [G9U G41C U47G]	< 1e-05	< 1e-05	< 1e-05	–
